From PMC10397247
Read-outs that look alike come from different tables or passages of the source.

T1: P2-AA-1HGe-M
T1 chain: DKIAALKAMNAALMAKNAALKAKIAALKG

T2: P2-AA-1HGe-D
T2 chain: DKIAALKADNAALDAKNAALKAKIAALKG

T3: P2-AA
T3 chain: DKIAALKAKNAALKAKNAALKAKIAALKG

T4: P2-AA-1HGe-T
T4 chain: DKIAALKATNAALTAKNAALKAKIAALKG

T5: P2-AA-1HGe-Q
T5 chain: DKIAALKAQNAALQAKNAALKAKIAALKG

T6: P2-AA-1HGe-A
T6 chain: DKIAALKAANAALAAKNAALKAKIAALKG

T7: 4H2935-AA
T7 chain: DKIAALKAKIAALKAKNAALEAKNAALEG

T8: 4H4033-AA
T8 chain: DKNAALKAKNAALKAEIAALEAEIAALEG

T9: 4H3605-AA
T9 chain: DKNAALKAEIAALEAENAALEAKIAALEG

T10: 4H3664-AA
T10 chain: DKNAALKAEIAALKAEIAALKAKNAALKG

T11: 4H2726-AA
T11 chain: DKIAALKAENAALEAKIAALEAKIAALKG

T12: 4H3625-AA
T12 chain: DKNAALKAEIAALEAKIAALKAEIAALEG

T13: 4H327-AA
T13 chain: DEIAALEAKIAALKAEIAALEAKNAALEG

T14: 4H481-AA
T14 chain: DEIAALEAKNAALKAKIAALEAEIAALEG

T15: 4H2614-AA
T15 chain: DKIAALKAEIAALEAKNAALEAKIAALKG

T16: 4H662-AA
T16 chain: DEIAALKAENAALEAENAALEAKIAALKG

T17: 4H369-AA
T17 chain: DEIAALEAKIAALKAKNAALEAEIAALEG

T18: 4H55-AA
T18 chain: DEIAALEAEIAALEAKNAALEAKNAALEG

T19: 4H3922-AA
T19 chain: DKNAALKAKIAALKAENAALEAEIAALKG

B1: P1-AA-1HGe-T (peptide)
chain: DEIAALEATNAALTAENAALEAEIAALEG
B2: P1-AA-1HGe-S (peptide)
chain: DEIAALEASNAALSAENAALEAEIAALEG
B3: 4H2614-AA (peptide)
chain: DKIAALKAEIAALEAKNAALEAKIAALKG
B4: P1-AA-1HGe-Q (peptide)
chain: DEIAALEAQNAALQAENAALEAEIAALEG

Tests used:
Assay in all cases: two-hybrid library CCmax;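 also: natural log of median RNA to DNA barcode read ratio; higher means stronger binding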
P2-AA-1HGe-M = molecular target: T1, P2-AA-1HGe-M; settings: mean of both orientations
P2-AA-1HGe-D = molecular target: T2, P2-AA-1HGe-D; settings: mean of both orientations
P2-AA = molecular target: T3, P2-AA; settings: mean of both orientations
P2-AA-1HGe-T = molecular target: T4, P2-AA-1HGe-T
P2-AA-1HGe-Q = molecular target: T5, P2-AA-1HGe-Q; settings: mean of both orientations
P2-AA-1HGe-A = molecular target: T6, P2-AA-1HGe-A; settings: mean of both orientations
4H2935-AA = molecular target: T7, 4H2935-AA; settings: mean of both orientations
4H4033-AA = molecular target: T8, 4H4033-AA; settings: mean of both orientations
4H3605-AA = molecular target: T9, 4H3605-AA; settings: mean of both orientations
4H3664-AA = molecular target: T10, 4H3664-AA; settings: mean of both orientations
4H2726-AA = molecular target: T11, 4H2726-AA; settings: mean of both orientations
4H3625-AA = molecular target: T12, 4H3625-AA; settings: mean of both orientations
4H327-AA = molecular target: T13, 4H327-AA; settings: mean of both orientations
4H481-AA = molecular target: T14, 4H481-AA; settings: mean of both orientations
4H2614-AA = molecular target: T15, 4H2614-AA
4H662-AA = molecular target: T16, 4H662-AA; settings: mean of both orientations
4H369-AA = molecular target: T17, 4H369-AA; settings: mean of both orientations
4H55-AA = molecular target: T18, 4H55-AA; settings: mean of both orientations
4H3922-AA = molecular target: T19, 4H3922-AA; settings: mean of both orientations

Row | Binder | interaction score (P2-AA-1HGe-M) | interaction score (P2-AA-1HGe-D) | interaction score (P2-AA) | interaction score (P2-AA-1HGe-T; mean of both orientations) | interaction score (P2-AA-1HGe-Q) | interaction score (P2-AA-1HGe-A) | interaction score (P2-AA-1HGe-T) | interaction score (4H2935-AA) | interaction score (4H4033-AA) | interaction score (4H3605-AA) | interaction score (4H3664-AA) | interaction score (4H2726-AA) | interaction score (4H3625-AA) | interaction score (4H327-AA) | interaction score (4H481-AA) | interaction score (4H2614-AA) | interaction score (4H662-AA) | interaction score (4H369-AA) | interaction score (4H55-AA) | interaction score (4H3922-AA)
1 | B1 | 1.53 | 1.17 | 2.07 | 2 | 2.05 | 2.18 |  |  |  |  |  |  |  |  |  |  |  |  |  | 
2 | B2 | 2.01 | 1.63 | 2.03 |  | 2.06 | 1.81 | 2.01 |  |  |  |  |  |  |  |  |  |  |  |  | 
3 | B3 |  |  |  |  |  |  |  | 0.084 | -1.43 | -0.49 | -1.11 | -0.336 | 0.314 | -0.0398 | 1.06 | 1.46 | -1.17 | 2.41 | -0.185 | 0.659
4 | B4 | 2.05 | 1.67 | 1.75 | 2.21 | 2.11 | 2.14 |  |  |  |  |  |  |  |  |  |  |  |  |  | 
